Results published in the supplement of paper PMC9876800.

Tested on: peptide library, one residue held at a place counted from the S/T acceptor
Test: relative phosphorylation of the sub-library (ratio to the mean residue at this position); higher = residue favoured
Method in brief: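 Purified recombinant kinases (human or orthologue constructs) were incubated in 384-well plates with biotinylated degenerate peptide sub-libraries, each fixing one residue at one position around a central Ser/Thr. Peptides were at 50 μM, with 50 μM ATP spiked with γ-32P-ATP, for 90 min under kinase-specific conditions. Spots on streptavidin membranes were phosphorimaged and quantified by densitometry. Relative sub-library phosphorylation is a ratio to the mean residue at that position.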

EIF2AK4, construct: aa191-1024, human, sequence (Q9P2K8 191-1024, looked up): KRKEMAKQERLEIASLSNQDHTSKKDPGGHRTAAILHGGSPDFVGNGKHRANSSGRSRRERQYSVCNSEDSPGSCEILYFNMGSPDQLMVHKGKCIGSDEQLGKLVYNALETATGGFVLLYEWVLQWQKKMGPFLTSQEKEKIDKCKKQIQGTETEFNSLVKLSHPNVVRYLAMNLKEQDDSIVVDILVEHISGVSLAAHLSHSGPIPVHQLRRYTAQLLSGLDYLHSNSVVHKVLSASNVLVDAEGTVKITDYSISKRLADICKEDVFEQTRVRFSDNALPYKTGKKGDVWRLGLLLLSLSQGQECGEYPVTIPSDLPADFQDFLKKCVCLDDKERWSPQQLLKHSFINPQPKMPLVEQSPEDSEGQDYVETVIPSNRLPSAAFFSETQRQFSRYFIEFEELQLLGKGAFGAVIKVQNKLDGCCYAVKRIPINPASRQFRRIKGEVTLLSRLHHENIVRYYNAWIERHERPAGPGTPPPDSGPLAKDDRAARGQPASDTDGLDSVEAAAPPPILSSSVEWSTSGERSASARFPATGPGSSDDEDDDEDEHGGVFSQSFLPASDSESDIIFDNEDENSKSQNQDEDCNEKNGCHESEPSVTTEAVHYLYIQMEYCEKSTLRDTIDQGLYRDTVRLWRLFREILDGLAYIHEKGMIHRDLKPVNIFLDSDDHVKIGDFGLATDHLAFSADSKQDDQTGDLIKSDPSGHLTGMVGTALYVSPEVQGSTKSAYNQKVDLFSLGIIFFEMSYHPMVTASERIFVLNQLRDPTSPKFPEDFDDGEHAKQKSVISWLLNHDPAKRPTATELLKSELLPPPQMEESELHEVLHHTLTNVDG
LATS2, construct: aa553-end, human, sequence (Q9NRM7 553-1088, looked up): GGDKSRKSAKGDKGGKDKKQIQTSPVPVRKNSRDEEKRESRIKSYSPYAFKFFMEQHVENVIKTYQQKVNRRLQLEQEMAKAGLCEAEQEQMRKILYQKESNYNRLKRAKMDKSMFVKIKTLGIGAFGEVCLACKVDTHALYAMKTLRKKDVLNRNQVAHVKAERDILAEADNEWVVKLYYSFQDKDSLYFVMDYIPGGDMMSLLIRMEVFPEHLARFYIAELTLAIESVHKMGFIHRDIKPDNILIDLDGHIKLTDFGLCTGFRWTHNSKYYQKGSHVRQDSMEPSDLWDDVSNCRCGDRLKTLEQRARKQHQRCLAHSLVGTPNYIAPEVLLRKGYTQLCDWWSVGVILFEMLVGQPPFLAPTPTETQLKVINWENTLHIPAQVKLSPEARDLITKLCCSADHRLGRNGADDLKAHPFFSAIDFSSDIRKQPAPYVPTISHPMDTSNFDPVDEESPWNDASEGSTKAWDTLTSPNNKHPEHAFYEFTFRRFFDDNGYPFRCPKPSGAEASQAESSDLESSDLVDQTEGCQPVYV
GRK3, construct: Full length, human, sequence (P35626 whole entry, looked up): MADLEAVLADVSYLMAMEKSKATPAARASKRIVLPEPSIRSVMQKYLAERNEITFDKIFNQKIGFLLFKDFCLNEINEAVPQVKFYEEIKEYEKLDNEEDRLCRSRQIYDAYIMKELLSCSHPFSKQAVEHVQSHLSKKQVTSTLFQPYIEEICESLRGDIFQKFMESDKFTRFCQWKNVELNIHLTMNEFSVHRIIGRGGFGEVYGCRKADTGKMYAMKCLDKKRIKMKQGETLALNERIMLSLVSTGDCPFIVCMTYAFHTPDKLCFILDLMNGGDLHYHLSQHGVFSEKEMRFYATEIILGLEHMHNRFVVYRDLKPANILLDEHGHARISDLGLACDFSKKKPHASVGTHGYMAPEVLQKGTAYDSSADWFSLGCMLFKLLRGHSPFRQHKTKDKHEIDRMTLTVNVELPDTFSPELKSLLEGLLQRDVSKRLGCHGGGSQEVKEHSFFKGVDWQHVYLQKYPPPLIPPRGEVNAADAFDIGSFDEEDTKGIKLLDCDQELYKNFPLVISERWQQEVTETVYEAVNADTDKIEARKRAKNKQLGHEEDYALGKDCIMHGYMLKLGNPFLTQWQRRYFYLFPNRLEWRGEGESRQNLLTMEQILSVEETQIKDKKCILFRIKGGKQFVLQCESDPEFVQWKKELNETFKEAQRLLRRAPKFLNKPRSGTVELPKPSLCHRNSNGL

EIF2AK4, construct: aa191-1024, human (from UniProt Q9P2K8)
relative phosphorylation
Details | at +1 | at +2 | at +3 | at +4 | at -1 | at -2 | at -3 | at -4 | at -5
A fixed | 0.622 | 0.832 | 0.837 | 0.891 | 0.732 | 0.958 | 0.968 | 1.01 | 1.07
D fixed | 0.335 | 1.1 | 0.504 | 0.75 | 1.22 | 2.28 | 1.62 | 1.47 | 1.12
E fixed | 0.537 | 0.351 | 0.539 | 0.788 | 0.894 | 2.2 | 1.68 | 1.16 | 1.06
F fixed | 2.06 | 0.645 | 0.948 | 0.945 | 0.836 | 1.18 | 0.891 | 0.86 | 1.07
G fixed | 0.757 | 0.811 | 2.04 | 1.16 | 1.03 | 1.02 | 0.924 | 1.1 | 1.06
H fixed | 1.04 | 1.8 | 1.02 | 0.969 | 1.12 | 0.964 | 0.901 | 1.18 | 1.17
I fixed | 0.858 | 0.689 | 0.699 | 0.896 | 0.635 | 0.533 | 0.76 | 0.77 | 0.823
K fixed | 0.724 | 0.717 | 1.11 | 1.08 | 0.78 | 0.555 | 0.695 | 0.945 | 1.04
L fixed | 0.621 | 0.631 | 0.75 | 0.976 | 1.15 | 0.693 | 1.02 | 0.829 | 0.726
M fixed | 1.68 | 0.59 | 0.826 | 0.973 | 1.11 | 1.09 | 1.08 | 0.846 | 0.825
N fixed | 0.933 | 0.841 | 0.829 | 0.867 | 1.38 | 1.21 | 0.959 | 1.04 | 0.923
P fixed | 0.162 | 0.475 | 1.9 | 1.07 | 0.629 | 0.643 | 0.699 | 0.825 | 0.824
Q fixed | 1.28 | 0.611 | 0.774 | 0.811 | 1.26 | 0.968 | 0.976 | 0.997 | 0.881
R fixed | 1.03 | 1.98 | 1.28 | 1.2 | 1.08 | 0.654 | 0.844 | 0.882 | 1.26
V fixed | 0.996 | 0.773 | 0.74 | 0.849 | 0.961 | 0.52 | 0.727 | 0.838 | 0.926
W fixed | 1.24 | 1.29 | 0.998 | 1.62 | 1.04 | 0.698 | 1.16 | 1.25 | 1.25
Y fixed | 2.13 | 2.85 | 1.2 | 1.16 | 1.13 | 0.828 | 1.1 | 1 | 0.975
pThr fixed | 0.715 | 0.592 | 0.686 | 0.736 | 0.803 | 1.16 | 0.969 | 1.03 | 0.724
pTyr fixed | 0.656 | 0.789 | 0.83 | 1.55 | 1.43 | 0.652 | 1.01 | 0.867 | 0.881

GRK3, construct: Full length, human (from UniProt P35626)
relative phosphorylation
Details | at +1 | at +2 | at +3 | at +4 | at -1 | at -2 | at -3 | at -4 | at -5
A fixed | 0.782 | 1.39 | 0.849 | 0.868 | 0.913 | 0.745 | 0.971 | 1 | 1.03
D fixed | 1.07 | 0.888 | 1.9 | 1.5 | 1.25 | 1.53 | 2.52 | 1.73 | 1.39
E fixed | 1.75 | 0.887 | 1.99 | 1.36 | 1.62 | 4.07 | 3.01 | 1.78 | 1.2
F fixed | 1.36 | 1.18 | 0.882 | 0.855 | 0.914 | 0.895 | 0.666 | 0.868 | 1.1
G fixed | 0.857 | 0.967 | 1.04 | 1 | 0.703 | 0.784 | 0.822 | 0.962 | 0.9
H fixed | 0.973 | 1.22 | 1.03 | 1.06 | 1.06 | 0.755 | 0.631 | 0.892 | 0.929
I fixed | 1.27 | 1.44 | 0.933 | 1.1 | 0.913 | 0.573 | 0.649 | 0.855 | 1.06
K fixed | 0.51 | 0.51 | 0.614 | 0.725 | 0.658 | 0.59 | 0.629 | 0.843 | 0.824
L fixed | 0.766 | 0.705 | 0.898 | 0.829 | 0.979 | 0.688 | 0.604 | 0.844 | 1.03
M fixed | 1.24 | 0.904 | 0.979 | 0.994 | 1.05 | 0.746 | 0.68 | 1 | 0.964
N fixed | 0.742 | 0.874 | 0.922 | 1.03 | 1.02 | 0.854 | 0.845 | 0.932 | 0.946
P fixed | 0.477 | 0.495 | 0.638 | 1.01 | 1.4 | 0.833 | 0.907 | 0.974 | 0.788
Q fixed | 1.03 | 0.781 | 0.712 | 0.877 | 0.843 | 0.733 | 0.663 | 0.83 | 0.758
R fixed | 0.646 | 0.614 | 0.631 | 0.709 | 0.819 | 1.13 | 1.6 | 1.1 | 0.933
V fixed | 1.55 | 1.71 | 0.862 | 0.843 | 1.15 | 0.612 | 0.603 | 0.729 | 0.893
W fixed | 0.93 | 0.948 | 0.922 | 1.25 | 0.595 | 0.657 | 0.592 | 0.815 | 1.02
Y fixed | 1.03 | 1.48 | 1.2 | 0.992 | 1.12 | 0.794 | 0.605 | 0.847 | 1.23
pThr fixed | 7.07 | 1.13 | 1.13 | 2.86 | 1.38 | 5.37 | 5.68 | 2.74 | 1.72
pTyr fixed | 3.27 | 1.99 | 2.21 | 1.72 | 3.26 | 18.2 | 6.04 | 3.04 | 2.78

LATS2, construct: aa553-end, human (from UniProt Q9NRM7)
relative phosphorylation
Details | at +1 | at +2 | at +3 | at +4 | at -1 | at -2 | at -3 | at -4 | at -5
A fixed | 0.577 | 1.11 | 0.859 | 0.703 | 0.693 | 0.789 | 0.766 | 1.15 | 0.615
D fixed | 0.89 | 2.94 | 1.47 | 1.4 | 0.702 | 0.901 | 0.465 | 0.649 | 0.475
E fixed | 0.953 | 0.932 | 1.36 | 1.49 | 0.516 | 1.27 | 0.352 | 0.739 | 0.308
F fixed | 1.29 | 0.699 | 0.846 | 0.865 | 0.483 | 0.764 | 0.415 | 0.981 | 0.672
G fixed | 0.876 | 1.53 | 1.54 | 1.27 | 0.994 | 1.13 | 0.769 | 1.15 | 0.706
H fixed | 0.995 | 1.27 | 1.2 | 1.31 | 1.07 | 1.43 | 1.66 | 1.36 | 6.2
I fixed | 1.16 | 0.853 | 0.778 | 0.671 | 0.331 | 0.321 | 0.242 | 0.49 | 0.308
K fixed | 0.821 | 0.357 | 0.868 | 0.756 | 2.74 | 1.03 | 2.4 | 1.27 | 1.12
L fixed | 1.12 | 0.862 | 0.825 | 0.661 | 0.699 | 0.393 | 0.297 | 0.587 | 0.458
M fixed | 1.49 | 0.841 | 0.875 | 1.07 | 0.71 | 0.91 | 0.36 | 0.92 | 0.439
N fixed | 1.42 | 1.01 | 1.03 | 1.28 | 1.12 | 1.64 | 0.784 | 0.925 | 0.607
P fixed | 0.328 | 0.794 | 1.04 | 1.33 | 2.39 | 0.766 | 1.48 | 1.34 | 0.682
Q fixed | 1.11 | 0.789 | 1.04 | 1.05 | 1.19 | 2.35 | 0.897 | 1.08 | 0.719
R fixed | 0.717 | 0.357 | 0.617 | 0.741 | 1.42 | 1.26 | 4.37 | 1.78 | 1.43
V fixed | 0.84 | 0.829 | 0.747 | 0.524 | 0.425 | 0.367 | 0.325 | 0.545 | 0.445
W fixed | 1.23 | 0.807 | 1.03 | 0.887 | 0.746 | 0.899 | 0.691 | 1.08 | 1.04
Y fixed | 1.18 | 1.02 | 0.874 | 0.996 | 0.779 | 0.782 | 0.734 | 0.966 | 0.776
pThr fixed | 1.08 | 0.655 | 0.925 | 1.55 | 0.287 | 0.456 | 0.441 | 0.552 | 0.349
pTyr fixed | 1.09 | 0.807 | 1.04 | 1.12 | 0.347 | 0.382 | 0.418 | 0.548 | 0.442

MAP2K1, construct: Full length, human (from UniProt Q02750)
relative phosphorylation
Details | at +1 | at +2 | at +3 | at +4 | at -1 | at -2 | at -3 | at -4 | at -5
A fixed | 0.7 | 0.969 | 0.94 | 0.939 | 1.03 | 0.942 | 1.02 | 0.999 | 1.03
D fixed | 1.55 | 0.835 | 1.02 | 1 | 0.876 | 0.955 | 1.02 | 1.13 | 1.08
E fixed | 0.866 | 0.696 | 0.898 | 0.911 | 0.722 | 0.931 | 1 | 1.2 | 0.95
F fixed | 1.18 | 0.746 | 0.992 | 0.92 | 0.933 | 1.72 | 1.04 | 1.04 | 1.81
G fixed | 0.753 | 0.712 | 1.11 | 1.07 | 1.35 | 0.808 | 0.725 | 0.902 | 0.816
H fixed | 0.877 | 3.48 | 1.29 | 0.998 | 1.02 | 2.03 | 1.07 | 1.11 | 0.992
I fixed | 1.56 | 0.839 | 0.852 | 0.976 | 0.77 | 0.695 | 0.998 | 0.961 | 0.94
K fixed | 0.629 | 0.84 | 0.923 | 0.885 | 1.07 | 0.768 | 1.09 | 0.861 | 0.925
L fixed | 1.18 | 0.718 | 0.947 | 1.05 | 1.32 | 0.787 | 1.02 | 0.891 | 0.943
M fixed | 1.42 | 0.924 | 0.909 | 0.949 | 1.14 | 1.02 | 1.02 | 1.06 | 0.909
N fixed | 0.738 | 0.738 | 0.854 | 0.83 | 0.959 | 0.994 | 0.781 | 0.974 | 0.882
P fixed | 0.71 | 0.775 | 0.969 | 1.04 | 0.768 | 0.615 | 0.707 | 0.806 | 0.935
Q fixed | 0.743 | 0.79 | 0.854 | 0.916 | 0.967 | 0.834 | 0.92 | 0.896 | 0.886
R fixed | 0.616 | 0.85 | 0.916 | 0.875 | 1.05 | 0.955 | 1.36 | 0.922 | 0.907
V fixed | 1.21 | 0.913 | 0.861 | 0.895 | 0.848 | 0.67 | 0.94 | 1.06 | 0.978
W fixed | 1.13 | 0.87 | 1.37 | 1.5 | 1.02 | 1.13 | 1.22 | 1.11 | 1.01
Y fixed | 1.13 | 1.31 | 1.29 | 1.25 | 1.17 | 1.14 | 1.06 | 1.09 | 1.01
pThr fixed | 1.45 | 1.08 | 0.988 | 1.02 | 0.87 | 0.824 | 1.7 | 1.14 | 0.922
pTyr fixed | 1.11 | 0.882 | 1.11 | 0.958 | 0.875 | 0.763 | 0.869 | 1.04 | 0.873
